# Laboratory results taken from the DeepSol protein solubility set.
# Assay: soluble on expression in E. coli; label from the status in PepcDB or PDB records
row,Sequence,soluble on expression in E. coli
1,MSLKEYTRPLEQGIDSDKNIFSVLEERVERTPDDNLVEYKNAQGEWAAFTAAEFKNKVVALAKGLIARGVMPGDSVSIIAHTCWQWTALDVAIMSIGALTVPVYETNSPAQVKMIFNDANVKMAFAEDDFQRDKIESVRDQCPDLGDVYVIGLGAIDTIIEYGRAVSDAEFLEREQAVKGSDLATIVYTSGSTGTPKGVELTHANFVFITYSGVNSMPDIAMKPNRRLLLFLPLAHVFARYMQFFCFAGNVSLGLSSNLKTILADFKAFKPTFILAVPRIFEKIYNAASQKAGAGFKGRVFADATQTACDWSHAQQSGGSIPLALNAKHALYNKLVYSSIMEVFGGHVEYAVSGGAPLDSSIAHFFNGVGLSLLEGYGMTETCAPSSVNPTEGYKIGTIGLPLQGVTMGVDEEGELCIKSPAVCAGYHNNPDVTKQQIVDGWLHTGDLGSIDDDGFVSIVGRKKDLIITAGGKNVSPCEMEASIMTSPVVSQCVMIGDRKPFIAAIISLDLAETNLWLESKGAEQVADLDEASKNPIVRAEVERAVNKANELASRAESIRKFEIVPDEFTEENGLVTPSMKARRQAVVEHYRTLIDKVIYVPRKPAAHAEEGHHHHHH,soluble
2,TTHFTVADRWGNVVSYTTTIEQLFGTGIMVPDYGVILNNELTDFDAIPGGANEVQPNKRPLSSMTPTILFKDDKPVLTVGSPGGATIISSVLQTILYHIEYGMELKAAVEEPRIYTNSMSSYRYEDGVPKDVLSKLNGMGHKFGTSPVDIGNVQSISIDHENGTFKGVADSSRNGAAIGINLKRKLEHHHHHH,soluble
3,GSMTHYDVVVLGAGPGGYVAAIRAAQLGLSTAIVEPKYWGGVCLNVGCIPSKALLRNAELVHIFTKDAKAFGISGEVTFDYGIAYDRSRKVAEGRVAGVHFLMKKNKITEIHGYGTFADANTLLVDLNDGGTESVTFDNAIIATGSSTRLVPGTSLSANVVTYEEQILSRELPKSIIIAGAGAIGMEFGYVLKNYGVDVTIVEFLPRALPNEDADVSKEIEKQFKKLGVTILTATKVESIADGGSQVTVTVTKDGVAQELKAEKVLQAIGFAPNVEGYGLDKAGVALTDRKAIGVDDYMRTNVGHIYAIGDVNGLLQLAHVAEAQGVVAAETIAGAETLTLGDHRMLPRATFCQPNVASFGLTEQQARNEGYDVVVAKFPFTANAKAHGVGDPSGFVKLVADAKHGELLGGHLVGHDVAELLPELTLAQRWDLTASELARNVHTHPTMSEALQECFHGLVGHMINF,soluble
4,MAHHHHHHMDPPAAFERRYPELGALRLHFDVLDSTQLYCKRNMARLLQNGSLQDDKHMVVVTCNEQTNGIGTRDTKKKQDRMWLSERGNLFTTFVLLWKREDLEKVKYLSQTSTVAVSKTLEHFHLVTQIKWVNDVLVNEKKIAGCLVHLHYLDDFPSLSRYACVMVGIGINITLRDKDNLLGDNYTSVQKELQRDFGSFCSIPSVEDVMDKLILNLHAVFTKLREEGFSSFLDYITPRLLYKDRNVLVDTDGELIAGHLQGLLHDGSLLLLRGENELVRVNTGHLRLG,soluble
5,MGSDKIHHHHHHMCASVLSRCGVALSQIQPIRCHLCQQTPCLTQCAEHNDTLNQHAAEYVKLVLAIGHHEPLYVDAYYGPAQWQAEASMLPLPELASRCASLVNQLANAGKDLSCQFLRDRHGFLSKQLGAVAAYLKRLMGQEFSFDVESRLLYDTQAPKLNLSDFSEVLARIDSLLPGEGSLTKRFDTYRSQFIVPADRVPQVFTAAVEQARLLTKRHLALPEGEQFRVEFVKDQIWTAYNWYQGDYASLIQLNQDHPLHLDRALELASHEGYPGHHVFNLLQEHELVKGLGWWEYAIYPLYSPISFLSEGSANYGLSLLMTKEERIDFEQRVLMPMAGIAGDLQHYHEVMVTYKALANLDTLVCRQLIDGEIQADEAARLLVEFALYTPEKAAQRVRFYQANRSYVLNYHHGEASVGEYVTNQVRDNAQAWEVFAALLARPRAASGIIR,not soluble
6,MSLNRFTKTSQGRSWNTGNGSPDAICFAVDKPGIVVVGFAVYGGGGIHEYELEVLVDDSEHAGDSTHSHRWTSLELVKGTYTTDDSPSDIAEIRLDKVVPLKENVKYAVRLRNYGSRTANGDGGMTTVQCPDGVTFTFSTCSLSSNGTNQTRGQIPQILYYRSEFDGDLQSQLLSKANEEDKNCSRALSVVSTVVRAAKDLLHRALAVDADEGHHHHHH,not soluble
7,MTNSSNLIDSLEVYVLNNPDEVKPHWVSHFIVPTANELLIKIKNKDGHSGFGLATSYTDIAPIIKPFSNGLQDLIIGEDPFCPEKIYEKIFKLTDTRLSSEKGWSREALIRISAALDIACWDLIGKASNIPLYKLFGGFRNKIPVYVTCAYYRDGKDEKELRDEIKKLVNIGHKSFKVKVGGLSIKEDVKRLEIIRDEIGDQKGLMIDVNRAWDLKTAIEGVKEFEKFKPTWIEEPVRWEDDRRTLKLLSKQTKIPLSGGESEVTIYGCRSMIEEDAIQILQFDCTMFGGFTNGKKLSALCELNHIDVAPHHDCYIHAPLVASTPAGRIVESFDDERDPLQAQLFENPHKMSEGWIHLNKKPGLGLEISDAALKKFGKLVYKNK,soluble
8,AIAEVLRPPLININGRIYRKNPVQEETYEEEEEDCSYSEAAVDQCLDEPCDAHNIEQTDRGFRCALDVPSVLYKYIIGKKGETRRRLESETKTSINIPKQGVEGQIVVTGAHRPSVSSAVTRIEVLIDSFRRKQPFTHFLSFALNHAQVREGFLRFREEVLEHCSQDSGVDVSIFQNPDKLHLTIGTLVLLNQQEVTRANELLHQCQDTIREITGAEALPVEVRGVEYMNDDPSMVDVLYAKVSVQDGSDRLQQISDRLVECFVSAGLMERERDRVKIHATVMNTLFRRDPSAEDRGAPARANPRDREAFNGKNILQMFGDFYFGAFELNSVQISQRFSTDSSGYYSSAGHITFS,soluble
9,EGYEQDFAVLTAEITSKIARVPRLPPDEKKQMVANVEKQLEEARELLEQMDLEVREIPPQSRGMYSNRMRSYKQEMGKLETDFKRSRIA,soluble
10,MSLVTRSVLKFGGSSVSDFTKIKRIAEMLKERVNQDEQLIVVVSAMGNTTDQLMTNVSTLTKAPKQQELALLLTTGEQQTVSYLSMVLNDIGVNAKAMTGYQAGIKTIGHHLKSKIAQINPQTFEQAFQENDILVVAGFQGINEHQELTTLGRGGSDTTAVALAVSNQIPCEIYTDVDGVYATDPRLLPKAKRLDIVSYEEMMEMSALGAGVLETRSVELAKNYNIPLYLGKTLSNVKGTWIMSNEEILEKKAVTGVALDKHMMHVTISYPLPDNQLLTQLFTELEEGAVNVDMISQIVNLDGLQLSFTIKDSDFHQISMILETLKNQYEALAYKINEHYVKISLIGSGMRDMSGVASKAFLTLIENNIPFYQTTTSEISISYVIDDFNGQQAVEKLYDAFNIEGHHHHHH,soluble
11,MKIAIFSKLTIKEDEIRKKLGNYDVDIFPPIKRGDLTSEKIFDYDIIGIIDGCFLQSTAVAHREILKVIENNITVFGAGSMGALRASELDTCGMIGVGLVYNLYKNGIISDDDEVAVTFDDNLNQITFSMISFREMIKNALNEKIIDEDDSKRLINSGKELYYPLRTFENVIEKSKISGEKREVLEKFLKNQPDIKRNDAFEMLEEIIKYIEKQ,not soluble
12,MDAKVAFSPHSDANGRLDEIGADIDTAQSSVLFSLAFLGQMTRGAIGPALGRALERPEVHVMGIADAEVRAGNLGLNVLTPDNRRRVVRAAALTGNVPPPFLTEPSGLAGVDGNQRGTRMHHKFVVLDFDKPTARVYLGSYNFSNPADDENGENLVVVRDRTVATSYMIEALRMYDHYVFRVLEHHHHHH,soluble
13,LTELYDAIPASIIIIDERMRLIGWNRFSRDTINGLSDNEMPGINPMKRVHPDDLPEMIRKMRNVIDLDIELSAEFRMYHKSGPPYKWAMCRGKRTIIEGKTCVVAVVTEIT,not soluble
14,DERKRQESLIQSMFMPREILRASLSDVDLNDDGRIKAIRFAERFVAEYEPGKKMKGLYLHGSFGVGKTYLLAAIANELAKRNVSSLIVYVPELFRELKHSLQDQTMNEKLDYIKKVPVLMLDDLGAEAMSSWVRDDVFGPILQYRMFENLPTFFTSNFDMQQLAHHLTYSQRGEEEKVKAARIMERIRYLAYPIEITGPNRR,soluble
15,EVQLQQSGPELVKPGASVKISCKASGYSFTGHLLNWVKQSHGKNLEWIGLVHPHNGAITYNQKFKDKATLTVDRSSTTAYIELVRLTSNDSAVYYCAREDFRYHYSMDYWGQGTSVTVSSAKTTPPSVYPLAPVCGDTTGSSVTLGCLVKGYFPEPVTLTWNSGSLSSGVHTFPAVLQSDLYTLSSSVTVTSSTWPSQSVTCNVAHPASSTKVDKKIVPK,soluble
16,EAISLSFEQRGQRRAILRDLSLGLAKGESLVVLGPSGCGKSTLLNILAGFQKPDQGRVQIDGRTLEGPGGERGVVFQDDALMPWLNALDNVALGLRIRGLGKAERTARARQVLQLVGLQEYAEQSVAQLSGGQRQRLGLARALAVEPDFLLLDEPFGALDALTRERMQVLLLDLWKQTGKGLFLITHSVDEALFLATDLVVMDGPPARIVKRLPVDFARRYAAGETVRSIKADPEFGRLRQALLDEFLDVAEA,not soluble
17,MGHHHHHHSHMNSRRRKAQFFLGTTNKRAKTVVLHIDGLDDTSRRNLCEEALLKIKGVISFTFQMAVQRCVVRIRSDLKAEALASAIASTKVMKAQQVVKSESGEEMLVPFQDTPVEVEQNTELPDYLPEDESPTKEQDKAVSRVGSHPEGGASWLSTAANFLSRSFYW,not soluble
18,MAHHHHHHMSPVLVPTACEDWSLNIDDESAKRFWWNNTYSITLWEETLNIEQQAEKITDGDVWSKFIDLQLRCAFKICSICHSPEGNADMKICCYCGNTVHENCSEPAAPEQIMWKPANLAYVEHMRACFQCQAVNYKEPLAPQSPSEWDNARRAAKRALTISDEYPPATVERIQKLLQRAETTSNDAVLLSELKSLVQSYFQSPQSLQFLRKERVASKGGGIGVVAARKIPAFSIIGVYPGYLDFMSGEQAKCGRPVPKYALMEYNCANYFNEVFVELQTTFTPFINEPNVDEKSNCAWIQEPHRKNGRLSVICVRDIQEGEELTIGYGPIYPRTYPYCYDAYACHQIEGHTTHPCYSLWHWPTLQEADARFVCHIGYIERDDCYVLWKNET,soluble
19,MGSDKIHHHHHHMPQLRDSGNHSTAPLDAHTKDEIQSFARIFGIETEYGVSVTGSDRPCDAGQTAMMMFQPIVAEARSTNTYIENGSRLYLDVGSHPEYATAEARDPMDALALDAAGELVMRDLALDAQRRLRSIQGAGSTVHVFKNNVDSAGHSFGCHENYLVRRFVPLKTIEQELLPFLITRQLFTGAGRMGEQGFQITQRADFLDEAVSSATTRSRPMVNTRDEPHADPDAFRRLHVIIGDSNRSQWATMMKLATTHLVLCVIEQAGREGKDSGFARFSFADASAANHKVSRDLTGVEASFDMADGTVMEGGAVAIQERYLEIVERFVGQHPEVCSSLPRTDVHEVIRRWRRVIEAFRSGVSETFADKVDWLAKRRLFDMLRNRAGGRLSVSKLEQLDMDYHDVANGALYASLCRRGAMRTLVNESQAHEAIDVPPHDTRAALRGRFIQSARSHNAQYSCDWTRLSLTSPNRMDVTLLDPFDAQPSDRFLTILEALQ,not soluble
20,GFIDSHVHLFGGSVELDCLSLYGVKGLDAMRAAIQPYAQANPDDALVFCVMADYDILGTGHTLTRHDLDSILADRPLAMFAPDHHTVWANTAALEATGLLQGGEVDAGSLIVLGEDGLANGELLEPGAYGPILGLTRHGGREMLGLTTGKDPEPPATPDQRARDKDVIARGLAHCAAQGITGLHLMDGNRYQLELLTELEAEGRLLCRCEVPFHMKGTDPVERMTAEAPAMRAAYRGDKVRCNHLKMFIDGVIESGTALMLRPYPGELGANDNTGDEVFTQEHFTACCVEADRLGFQIAVHAIGDAGVRRTIDAFEAARRANGTRDSRHRIEHIEVIHPDDIPRLAELDIVASLQPGHAPRGHVFPPGAVGQYLHPDQIVGAYAWQTIRETGARVVFSTDWPVIPVDVMPSLRAAIAPLDLGPDWPDQSQSLMDTLASYTRDNAWVEFNEDSKGRLKVGMAADIAVLSHDLTALAPDDITQAAAMVTIMDGAVTY,not soluble
